Kd data for 2 molecules are collected here from US20220363718A1.

*1 amine or outer side, *2 acyl side, *3 side chain or, on linkers, in order; H or OH if unused. Bridges are numbered along the chain shown (N, C = ends). [ ]: non-standard residue; d: D form. TATA = O=C(CC[*:1])N1CN(C(=O)CC[*:2])CN(C(=O)CC[*:3])C1; Trp(1-Me) = Cn1cc(C[C@H](N)C(=O)O)c2ccccc21; Arg(Me2a) = CN(C)C(=N)NCCC[C@H](N)C(=O)O; Phe(4-F) = N[C@@H](Cc1ccc(F)cc1)C(=O)O; tBuAla = CC(C)(C)C[C@H](N)C(=O)O; NMeD = CN[C@@H](CC(=O)O)C(=O)O; NMeA = CN[C@@H](C)C(=O)O

The target of the experiment is Biotinylated human TSLP (human). Briefly: SPR, biotinylated hTSLP on streptavidin chip.
Chain of Biotinylated human TSLP (human) (chain, as listed by the source limits assumed): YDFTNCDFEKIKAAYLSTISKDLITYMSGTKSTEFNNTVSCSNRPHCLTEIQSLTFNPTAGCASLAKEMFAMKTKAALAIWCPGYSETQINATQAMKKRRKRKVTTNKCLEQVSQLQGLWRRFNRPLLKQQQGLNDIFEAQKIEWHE

Turning to Ac-C[NMeA][Trp(1-Me)][tBuAla]Q[NMeD]C[Trp(1-Me)][Arg(Me2a)]G[Phe(4-F)]C-NH2 (linker 1-7-12 via TATA) [Example 5], the Kd worked out at 2.7 nM.

B1: Example 13 (peptide)
peptide: CQXLEDCXXGXC
modifications: not fully specified; N-term acetyl; CQ[TrpMe]LEDC[TrpMe][ADMA]G[4-FPhe]C as printed; 3 Cys on TATA
Molecule B1 gave a Kd of 6 nM.
